{"source": "the supplement of paper PMC10567573", "parents": {"B1": {"name": "DUSP5 (parent)", "chain": "YSEYPECCVDVKPISQEKIESERA"}, "B2": {"name": "NP_009172.2 (parent)", "chain": "LPALFTDLYSQEITAEEAREALP"}}, "data": [{"variants_of": "B1", "experiment": "protein stability index of a GFP-peptide fusion (GPS, HEK-293T) (PSI 1-6); higher = more stable", "details": "c terminus: a fixed tail appended", "values": [{"variant": "YSEYPECCVDVKPISQEKIVSERA", "note": "[E20V]", "protein stability index": 2.78}, {"variant": "YSEYPECCVDVKPISQEKIRSERA", "note": "[E20R]", "protein stability index": 3.56}, {"variant": "YSEYPECCVDVKPISQEKISSERA", "note": "[E20S]", "protein stability index": 3.97}, {"variant": "YSEYPECCVDVKPISQEKIYSERA", "note": "[E20Y]", "protein stability index": 4.1}, {"variant": "YSEYPECCVDVKPISQEKIGSERA", "note": "[E20G]", "protein stability index": 3.67}, {"variant": "YSEYPECCVDVKPISQEKIQSERA", "note": "[E20Q]", "protein stability index": 3.65}, {"variant": "YSEYPECCVDVKPISQEKIISERA", "note": "[E20I]", "protein stability index": 3.49}, {"variant": "YSEYPECCVDVKPISQEKIWSERA", "note": "[E20W]", "protein stability index": 2.04}, {"variant": "YSEYPECCVDVKPISQEKILSERA", "note": "[E20L]", "protein stability index": 3.94}, {"variant": "YSEYPECCVDVKPISQEKIMSERA", "note": "[E20M]", "protein stability index": 2.8}, {"variant": "YSEYPECCVDVKPISQEKIHSERA", "note": "[E20H]", "protein stability index": 4}, {"variant": "YSEYPECCVDVKPISQEKIKSERA", "note": "[E20K]", "protein stability index": 4.02}, {"variant": "YSEYPECCVDVKPISQEKIPSERA", "note": "[E20P]", "protein stability index": 3.78}, {"variant": "YSEYPECCVDVKPISQEKITSERA", "note": "[E20T]", "protein stability index": 3.59}, {"variant": "YSEYPECCVDVKPISQEKINSERA", "note": "[E20N]", "protein stability index": 3.6}, {"variant": "YSEYPECCVDVKPISQEKIESTRA", "note": "[E22T]", "protein stability index": 4.17}, {"variant": "YSEYPECCVDVKPISQEKIESDRA", "note": "[E22D]", "protein stability index": 4.24}, {"variant": "YSEYPECCVDVKPISQEKIESCRA", "note": "[E22C]", "protein stability index": 3.51}, {"variant": "YSEYPECCVDVKPISQEKIESYRA", "note": "[E22Y]", "protein stability index": 2.58}, {"variant": "YSEYPECCVDVKPISQEKIESPRA", "note": "[E22P]", "protein stability index": 3.45}, {"variant": "YSEYPECCVDVKPISQEKIESHRA", "note": "[E22H]", "protein stability index": 4}, {"variant": "YSEYPECCVDVKPISQEKIESVRA", "note": "[E22V]", "protein stability index": 3.05}, {"variant": "YSEYPECCVDVKPISQEKIESWRA", "note": "[E22W]", "protein stability index": 2.88}, {"variant": "YSEYPECCVDVKPISQEKIESSRA", "note": "[E22S]", "protein stability index": 3.56}, {"variant": "YSEYPECCVDVKPISQEKIESMRA", "note": "[E22M]", "protein stability index": 3.65}, {"variant": "YSEYPECCVDVKPISQEKIESARA", "note": "[E22A]", "protein stability index": 4.36}, {"variant": "YSEYPECCVDVKPISQEKIESKRA", "note": "[E22K]", "protein stability index": 3.43}, {"variant": "YSEYPECCVDVKPISQEKIESFRA", "note": "[E22F]", "protein stability index": 3.6}, {"variant": "YSEYPECCVDVKPISQEKIESLRA", "note": "[E22L]", "protein stability index": 2.27}, {"variant": "YSEYPECCVDVKPISQEKIESIRA", "note": "[E22I]", "protein stability index": 3.54}, {"variant": "YSEYPECCVDVKPISQEKIESNRA", "note": "[E22N]", "protein stability index": 3.59}, {"variant": "YSEYPECCVDVKPISQEKIESRRA", "note": "[E22R]", "protein stability index": 3.18}, {"variant": "YSEYPECCVDVKPISQEKIESQRA", "note": "[E22Q]", "protein stability index": 3.54}, {"variant": "YSEYPECCVDVKPISQEKIESEMA", "note": "[R23M]", "protein stability index": 3.91}, {"variant": "YSEYPECCVDVKPISQEKIESESA", "note": "[R23S]", "protein stability index": 4.38}, {"variant": "YSEYPECCVDVKPISQEKIESEKA", "note": "[R23K]", "protein stability index": 4.65}, {"variant": "YSEYPECCVDVKPISQEKIESECA", "note": "[R23C]", "protein stability index": 4.98}, {"variant": "YSEYPECCVDVKPISQEKIESEDA", "note": "[R23D]", "protein stability index": 4.41}, {"variant": "YSEYPECCVDVKPISQEKIESEFA", "note": "[R23F]", "protein stability index": 3.73}, {"variant": "YSEYPECCVDVKPISQEKIESELA", "note": "[R23L]", "protein stability index": 4.18}, {"variant": "YSEYPECCVDVKPISQEKIESETA", "note": "[R23T]", "protein stability index": 4.44}, {"variant": "YSEYPECCVDVKPISQEKIESEGA", "note": "[R23G]", "protein stability index": 4.42}, {"variant": "YSEYPECCVDVKPISQEKIESEVA", "note": "[R23V]", "protein stability index": 3.88}, {"variant": "YSEYPECCVDVKPISQEKIESEYA", "note": "[R23Y]", "protein stability index": 3.71}, {"variant": "YSEYPECCVDVKPISQEKIESEIA", "note": "[R23I]", "protein stability index": 4.24}, {"variant": "YSEYPECCVDVKPISQEKIESENA", "note": "[R23N]", "protein stability index": 4.34}, {"variant": "YSEYPECCVDVKPISQEKIESEAA", "note": "[R23A]", "protein stability index": 4.23}, {"variant": "YSEYPECCVDVKPISQEKIESEPA", "note": "[R23P]", "protein stability index": 4.55}, {"variant": "YSEYPECCVDVKPISQEKIESEHA", "note": "[R23H]", "protein stability index": 4.52}, {"variant": "YSEYPECCVDVKPISQEKIESEEA", "note": "[R23E]", "protein stability index": 4.39}, {"variant": "YSEYPECCVDVKPISQEKIESEWA", "note": "[R23W]", "protein stability index": 3.41}, {"variant": "YSEYPECCVDVKPISQEKIESEQA", "note": "[R23Q]", "protein stability index": 4.34}, {"variant": "YSEYPECCVDVKPISQEKIEGERA", "note": "[S21G]", "protein stability index": 3.8}, {"variant": "YSEYPECCVDVKPISQEKIETERA", "note": "[S21T]", "protein stability index": 4.55}, {"variant": "YSEYPECCVDVKPISQEKIEAERA", "note": "[S21A]", "protein stability index": 4.36}, {"variant": "YSEYPECCVDVKPISQEKIERERA", "note": "[S21R]", "protein stability index": 3.22}, {"variant": "YSEYPECCVDVKPISQEKIEPERA", "note": "[S21P]", "protein stability index": 4.29}, {"variant": "YSEYPECCVDVKPISQEKIENERA", "note": "[S21N]", "protein stability index": 3.73}, {"variant": "YSEYPECCVDVKPISQEKIEQERA", "note": "[S21Q]", "protein stability index": 4.1}, {"variant": "YSEYPECCVDVKPISQEKIEHERA", "note": "[S21H]", "protein stability index": 4.58}, {"variant": "YSEYPECCVDVKPISQEKIEMERA", "note": "[S21M]", "protein stability index": 3.72}, {"variant": "YSEYPECCVDVKPISQEKIEWERA", "note": "[S21W]", "protein stability index": 3.61}, {"variant": "YSEYPECCVDVKPISQEKIEFERA", "note": "[S21F]", "protein stability index": 4.11}, {"variant": "YSEYPECCVDVKPISQEKIELERA", "note": "[S21L]", "protein stability index": 3.79}, {"variant": "YSEYPECCVDVKPISQEKIEKERA", "note": "[S21K]", "protein stability index": 4.49}, {"variant": "YSEYPECCVDVKPISQEKIEIERA", "note": "[S21I]", "protein stability index": 3.42}, {"variant": "YSEYPECCVDVKPISQEKIEVERA", "note": "[S21V]", "protein stability index": 4.36}, {"variant": "YSEYPECCVDVKPISQEKIEEERA", "note": "[S21E]", "protein stability index": 4.71}, {"variant": "YSEYPECCVDVKPISQEKIEYERA", "note": "[S21Y]", "protein stability index": 3.76}, {"variant": "YSEYPECCVDVKPISQEKIEDERA", "note": "[S21D]", "protein stability index": 3.47}, {"variant": "YSEYPECCVDVKPISQEKIECERA", "note": "[S21C]", "protein stability index": 3.96}, {"variant": "YSEYPECCVDVKPISQEKIESERE", "note": "[A24E]", "protein stability index": 4.9}, {"variant": "YSEYPECCVDVKPISQEKIESERK", "note": "[A24K]", "protein stability index": 3.82}, {"variant": "YSEYPECCVDVKPISQEKIESERL", "note": "[A24L]", "protein stability index": 4.26}, {"variant": "YSEYPECCVDVKPISQEKIESERQ", "note": "[A24Q]", "protein stability index": 4.18}, {"variant": "YSEYPECCVDVKPISQEKIESERH", "note": "[A24H]", "protein stability index": 3.73}, {"variant": "YSEYPECCVDVKPISQEKIESERG", "note": "[A24G]", "protein stability index": 3.82}, {"variant": "YSEYPECCVDVKPISQEKIESERV", "note": "[A24V]", "protein stability index": 3.89}, {"variant": "YSEYPECCVDVKPISQEKIESERN", "note": "[A24N]", "protein stability index": 4.1}, {"variant": "YSEYPECCVDVKPISQEKIESERD", "note": "[A24D]", "protein stability index": 4.45}, {"variant": "YSEYPECCVDVKPISQEKIESERF", "note": "[A24F]", "protein stability index": 2.43}, {"variant": "YSEYPECCVDVKPISQEKIESERY", "note": "[A24Y]", "protein stability index": 3}, {"variant": "YSEYPECCVDVKPISQEKIESERI", "note": "[A24I]", "protein stability index": 4.16}, {"variant": "YSEYPECCVDVKPISQEKIESERW", "note": "[A24W]", "protein stability index": 3.44}, {"variant": "YSEYPECCVDVKPISQEKIESERP", "note": "[A24P]", "protein stability index": 3.88}]}, {"variants_of": "B2", "experiment": "protein stability index of a GFP-peptide fusion (GPS, HEK-293T) (PSI 1-6); higher = more stable", "details": "c terminus: native", "values": [{"variant": "LPALFTDLYSQEATAEEAREALP", "note": "[I13A]", "protein stability index": 2.97}, {"variant": "LPALFTDLYSQEQTAEEAREALP", "note": "[I13Q]", "protein stability index": 2.98}, {"variant": "LEALFTDLYSQEITAEEAREALP", "note": "[P2E]", "protein stability index": 3.51}, {"variant": "LPALFTDLYSQEITAEEARQALP", "note": "[E20Q]", "protein stability index": 2.22}, {"variant": "LPALFTDLYSQEITAEEARCALP", "note": "[E20C]", "protein stability index": 2.38}, {"variant": "LPALFTDLYSQEITYEEAREALP", "note": "[A15Y]", "protein stability index": 2.72}, {"variant": "LPALFTDLYSQEITAEEAREAWP", "note": "[L22W]", "protein stability index": 2.67}, {"variant": "QPALFTDLYSQEITAEEAREALP", "note": "[L1Q]", "protein stability index": 2.5}, {"variant": "LPELFTDLYSQEITAEEAREALP", "note": "[A3E]", "protein stability index": 3.66}, {"variant": "LPALFTNLYSQEITAEEAREALP", "note": "[D7N]", "protein stability index": 3.52}]}]}
